This note sets out measurements from the supplement of paper PMC12042874.

± gives the uncertainty stated by the source.

A short description of the data set: amyloid nucleation score (Sup35N fusion, yeast selection) (log enrichment); library NNK3; higher = more nucleation; inactive = no reads after selection. The method, boiled down:
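In psi-negative yeast, Sup35N fusions carrying peptides of 20 random codons were induced with 100 μM copper sulfate for 24 hours. The cells then grew 7 days at 30°C on medium lacking adenine and uracil, and plasmid inserts from input and output were Illumina-sequenced, excluding sequences with under 100 input reads. Nucleation score is the DiMSum log enrichment of output over input reads, centred on the mode score of non-aggregating sequences.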
As to IVRSF, the amyloid nucleation score entry is “inactive”.
Under IVSALQFAEAKL stands “inactive”; under IVSKW, “inactive”.
Under IVVFLDLFRDTFGLGLPTKG stands “inactive”; under IWASRS, “inactive”.
Under IWETVRIFCFINHAINCGVP stands 2.35 ± 0.079.
IWKLHITLLSYRSILHVLHM: the amyloid nucleation score entry was “inactive”.
On to IWQCRYLRMGQ, for which the amyloid nucleation score result was “inactive”.
The result for IWTTPHVCPNLMMSARGCRL reads “inactive”; that for IWYGLDIWRPLCIGAPMVKD, “inactive”.
The result for IYCFRGNHFDCLGAGNMLQV reads “inactive”; that for IYCWCSVIDTGRAARLRVIK, “inactive”; that for IYDCFVTGSFLRK, “inactive”.
With IYGWGRRFRTRR, the amyloid nucleation score entry is “inactive”.
As for IYHSYNESVCTYSNHPSRM, the amyloid nucleation score result is “inactive”.
In the case of IYIAKLHEFSIRYVLPVWYI, the amyloid nucleation score entry is “inactive”.
Under IYNNSYKFCILLVTWTIEVQ stands “inactive”.
Under IYSTVSYQGTVWRKYWQMNG stands “inactive”; under IYTARIVTFCTFFRRY, “inactive”; under IYVGKRNSCRPSSEDSVGNR, 0.402 ± 0.38.
The result for IYYFSLSMVLRCSEWTLYVY reads “inactive”.
KAARTSQGNARCVYVKGVSN: the amyloid nucleation score entry was “inactive”.
With KAHRYVWVPSMPSNMNSHRR, the amyloid nucleation score result is “inactive”.
Under KAIDFADDELRPIYMTFRVQ stands “inactive”; under KALGAEYNTHGTVSGCSLCK, “inactive”; under KALSCSRSFAVKVVYTQDP, “inactive”.
As to KALSSDPTICFRRAFIVHCK, the amyloid nucleation score result was “inactive”.
The result for KAPNPI reads “inactive”; that for KAQEHPA, “inactive”; that for KARWYFIVLNVVTHSWDSKV, “inactive”.
The result for KCAVDTV reads “inactive”; that for KCDDIGCLGQAT, “inactive”.
Under KCKFNWVCEVVR stands “inactive”; under KCLGFHKHGALFTAYWGQTS, “inactive”.
With KCLLGLSLVRAKRSKLWMW, the amyloid nucleation score result is “inactive”.
Under KCMFSIFSGAASVLLKMFMV stands “inactive”; under KCSFTVNYRRRYSLYC, “inactive”.
The result for KCSTMGWRWYMSS reads -0.106 ± 0.93; that for KDCQKNGWLSSTNLELLQCP, “inactive”; that for KDFGRLLLN, “inactive”.
Under KDGFYNVPLVEPHMRSSSTP stands “inactive”; under KDLCPFARPASRLHRVACME, “inactive”; under KDLQR, “inactive”.
As to KDQSRSARSST, the amyloid nucleation score entry is “inactive”.
The result for KDVSPVCNVPMSGWWTTAFL reads “inactive”; that for KDYLLSSYCEECHDHSSSEL, “inactive”.
The result for KEGDFPLSSSRYSYTNYLVI reads “inactive”.
Consider KENFASVCCGCYPMQPPGIM, for which the amyloid nucleation score result is “inactive”.
Under KFARV stands “inactive”; under KFFCW, “inactive”; under KFGFCDIMKGLFRRMLGLKV, -1.06 ± 1.3.
The result for KFGSLVKTYFRDMFRSILCW reads “inactive”; that for KFIGFYVWVYVCHCVVIRAY, “inactive”; that for KFLISFRRSY, 2.07 ± 0.076.
For KFLYRCINRLANSLIRELPI, the amyloid nucleation score result is “inactive”.
The result for KFRKTRSKR reads “inactive”; that for KFYLILVA, “inactive”; that for KGCNETWFVNPRGRYCWEFC, “inactive”.
Under KGDCQWVVPYVIHSNHVRAG stands “inactive”; under KGLYV, “inactive”.
Under KGTPGLDFTAADPGVIAL stands “inactive”; under KIHCAESATVVLWVRVGDCR, “inactive”.
Regarding KISAIVSYPAYVIIVHRLWH, the amyloid nucleation score entry was “inactive”.
For the substance KITIKFYRCTS, the amyloid nucleation score entry was “inactive”.
The result for KIVLDRARDWQL reads 0.094 ± 0.41.
The result for KKLHALESCA reads “inactive”.
The result for KKMLEKKI reads “inactive”.
Regarding KKRGHEWFVIIKSARGASKR, the amyloid nucleation score entry is “inactive”.
Under KKYVETVSS stands “inactive”; under KLCTVSNRSVMPGIT, “inactive”.
Regarding KLCYTASEWSGNSLNVVRNK, the amyloid nucleation score result is “inactive”.
Under KLDTVYRPSMRACVCNREFV stands -0.515 ± 1.1; under KLFYQMILYRNG, “inactive”; under KLLLYFKYLMPVELISWSTL, “inactive”.
Under KLLRQNSY stands “inactive”.
The result for KLMEICYRVRIRRMECQVNW reads 0.753 ± 0.12.
With KLNFVGLVLRNVGSWEGHGC, the amyloid nucleation score entry is “inactive”.
Take KLSDDRKTRCNYYFMGLVVV: the amyloid nucleation score entry was “inactive”.
Under KLTGQDLVVGNAFATVVYVE stands “inactive”.
Under KLVWRERICEDGFYIKTTFL stands “inactive”; under KMCLLFVREFRMLFACVWVT, “inactive”.
Under KMFSLWFQ stands 1.69 ± 0.12; under KMMARTSNVVEVLCWRTDVA, 0.015 ± 0.64.
KMQISTKVCDMDLFCPKTIP: the amyloid nucleation score result was “inactive”.
The result for KMSAPWEGQCECCGCDF reads “inactive”; that for KMSNGDTNDANVFIVRDSWL, “inactive”; that for KNGFRNVRKQRGAQKE, “inactive”.
Under KNNGTSKGVCRLQIMLFGLA stands “inactive”; under KNQMVFVINY, 2.68 ± 0.053.
Under KPCHLYMTAEDTYVWMSVGL stands “inactive”.
In the case of KPDVY, the amyloid nucleation score entry was “inactive”.
Under KPLMWESSDNPEGWQLSLLG stands -0.79 ± 1.4; under KPLVV, “inactive”.
Under KPPQNILVDMRLEGSMC stands “inactive”; under KPWIFMESRDM, “inactive”.
Consider KQFRVWFCYFL, for which the amyloid nucleation score was determined as 0.565 ± 0.14.
Under KQPCCNVFCC stands 2.42 ± 0.069; under KQVNQSRLMISGGNCRGRAN, “inactive”; under KQVNSCDFLMWMLLALHFKG, “inactive”.
Under KRCWLWWIKVCTKMLLEVSS stands “inactive”.
The result for KRDHMVSLGYSLGSKQRGVG reads “inactive”.
On to KRFHWFGVGVDAVMRFGV, for which the amyloid nucleation score entry was “inactive”.
The result for KRKRVK reads “inactive”; that for KRLFIILIWKFCTGLCFL, “inactive”.
KRPWTVFFVFFIGFATLL: the amyloid nucleation score stood at 1.15 ± 0.1.
Under KRVCCCKNSSSCE stands “inactive”.
Turning to KRVKWNCRGLDDSMLFFWVV, the amyloid nucleation score entry is “inactive”.
The result for KRVSTDAW reads “inactive”; that for KRYCSLMML, “inactive”.
The result for KRYVCSTVTMLNCQVR reads “inactive”.
Under KSALTRPDARPVRYRQPTHS stands “inactive”; under KSAREFGAHFMSTITVACTR, “inactive”.
With KSCLCLSPRGFGTDSAAVKW, the amyloid nucleation score worked out at 0.966 ± 0.12.
KSFLLPCFCRTLWTWMHRHA yielded an amyloid nucleation score of 1.11 ± 0.14.
Under KSGTGSNWFWKGGLSGTKKH stands “inactive”; under KSLTAYSLFVASYLSSFEWG, “inactive”; under KSLTDHVNRSFLMVGVWMVK, “inactive”.
The result for KSSWAIKSSNGTW reads “inactive”; that for KSWGLVHKCSSAFMFPKFCP, “inactive”; that for KTHTPTVQMEL, “inactive”.
As to KTIFFMKGLVMSDDICSDRR, the amyloid nucleation score entry was “inactive”.
The result for KTLTKSNIWIG reads -0.639 ± 0.87; that for KTRERGLSTGDGTQNEIAGY, -0.123 ± 0.51.
The result for KVFNTL reads “inactive”; that for KVLMST, -0.443 ± 1.4; that for KVNGYSLMLLDPVGGLTNT, “inactive”.
Take KVSCEYSNNKWF: the amyloid nucleation score result is “inactive”.
The result for KVWCKMLISSFIWMYVSE reads “inactive”.
The result for KVWSLYLYVRSTYRL reads “inactive”.
With KWAWVGISCPRYRSRLGYFS, the amyloid nucleation score entry was “inactive”.
Regarding KWFAATVLSNKPREEKRMVT, the amyloid nucleation score entry was “inactive”.
Consider KWIVQAILSSEL, for which the amyloid nucleation score entry is “inactive”.
The result for KWMGKNTKSG reads “inactive”.
